In PMC11938149:

Molecular target: T1, Bacillus subtilis FtsZ^1-382 (for light scattering) (Bacillus subtilis) (UniProt P17865)
T1 sequence: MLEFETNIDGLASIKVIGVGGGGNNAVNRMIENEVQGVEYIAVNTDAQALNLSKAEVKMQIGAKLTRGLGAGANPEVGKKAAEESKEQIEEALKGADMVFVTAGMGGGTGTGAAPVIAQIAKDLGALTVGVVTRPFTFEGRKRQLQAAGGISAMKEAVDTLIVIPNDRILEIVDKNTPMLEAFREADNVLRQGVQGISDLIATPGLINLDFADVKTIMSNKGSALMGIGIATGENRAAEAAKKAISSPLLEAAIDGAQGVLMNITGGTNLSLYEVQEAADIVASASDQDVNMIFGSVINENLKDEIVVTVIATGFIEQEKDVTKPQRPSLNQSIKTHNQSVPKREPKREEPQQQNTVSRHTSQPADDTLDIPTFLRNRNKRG

inhibition of FtsZ polymerization by light scattering (5 uM FtsZ, 15 uM MinC, HMK buffer pH 7.7, 100 mM potassium): 50%
B1: Bacillus subtilis MinC^1-224 wild type (for light scattering) (natural protein)
chain: MKTKKQQYVTIKGTKNGLTLHLDDACSFDELLDGLQNMLSIEQYTDGKGQKISVHVKLGNRFLYKEQEEQLTELIASKKDLFVHSIDSEVITKKEAQQIREEAEIISVSKIVRSGQVLQVKGDLLLIGDVNPGGTVRAGGNIFVLGSLKGIAHAGFNGNNQAVIAASEMLPTQLRINHVLNRSPDHIQKGNEMECAYLDTDGNMVIERLQHLAHLRPDLTRLEG
